Assay results from the DeepSol protein solubility set.

Assay: soluble on expression in E. coli; label from the status in PepcDB or PDB records

Sequence | soluble on expression in E. coli
MKSHERGRVILVIDDTDCGRVAAERLVFMARAGFRGDVFVVFGKDIEISPIASYEKEMKIYTSLRVKASKFVEFYRERLEEAGLEVKQVKIILGNVSEEVLRLEKLLNPDLIVFGMEKRGFLKRLLRGDPYKEIIYETKAPVMVCKAGYERKDVDYEKIRCAKCVMG | not soluble
MAVNPATGKSDFVMMSEQQELGMGARYNQEILKQFPRYNDEKLQAYVQRVGERVARSSHRSNLQYHFTVIDSPDINAFALPGGYIYIHRGLIAYLGSEAELAAVLGHEVGHVTARHSVRQQSQASAWNILGQAVAIGTGVGAAGDLANVLGTAFVRGYGRDMELEADGLGAQYLARAGYDPTAMIQVVRVLKNQEDFAREEAARNGQAVQAGGYHGLFDTHPDNDRRLQEVVGPARQLANGQQEVGREVFLRHLEGMPFGDSASAGVRRGQNFYHAELDFTLSYPAGWKILNQPSALLGYPADEQSFIGMKLVPHDSRLTPAEFLRKNAGQRLAQEESLKQAGLNGYTAVVPGNPARRVAVIYQGDRAYLFVGVVKVGSLETQDDRFLSVIRSFRPLRDKERALAQPRRLHLVQVKAGQTLEQLAAGGEGSLSDSVARLRLLNDLYPSGEPRPGDWLKVVRLEHHHHHH | not soluble
MANPTVIKLQDGNVMPQLGLGVWQASNEEVITAIQKALEVGYRSIDTAAAYKNEEGVGKALKNASVNREELFITTKLWNDDHKRPREALLDSLKKLQLDYIDLYLMHWPVPAIDHYVEAWKGMIELQKEGLIKSIGVCNFQIHHLQRLIDETGVTPVINQIELHPLMQQRQLHAWNATHKIQTESWSPLAQGGKGVFDQKVIRDLADKYGKTPAQIVIRWHLDSGLVVIPKSVTPSRIAENFDVWDFRLDKDELGEIAKLDQGKRLGPDPDQFGG | soluble
GSHMAPDCSQPLDVILLLDGSSSFPASYFDEMKSFAKAFISKANIGPRLTQVSVLQYGSITTIDVPWNVVPEKAHLLSLVDVMQREGGPSQIGDALGFAVRYLTSEMHGARPGASKAVVILVTDVSVDSVDAAADAARSNRVTVFPIGIGDRYDAAQLRILAGPAGDSNVVKLQRIEDLPTMVTLGNSFLHKLCSG | soluble
MSYYHHHHHHNYNIPTTENLYFQGAMVAPAGEQGRSSTALSDNPFDAKAWRLVDGFDDLTDITYHRHVDDATVRVAFNRPEVRNAFRPHTVDELYRVLDHARMSPDVGVVLLTGNGPSPKDGGWAFCSGGDQRIRGRSGYQYASGDTADTVDVARAGRLHILEVQRLIRFMPKVVICLVNGWAAGGGHSLHVVCDLTLASREYARFKQTDADVGSFDGGYGSAYLARQVGQKFAREIFFLGRTYTAEQMHQMGAVNAVAEHAELETVGLQWAAEINAKSPQAQRMLKFAFNLLDDGLVGQQLFAGEATRLAYMTDEAVEGRDAFLQKRPPDWSPFPRYF | soluble
GPGSMRDLNKRQQKFVCGCLGITSWDGKDIPFYVETMPKINDVVWVKITQVNDTSAVVQLLEYGKREGIIPYTEVTRRRVRSMGKLIKVGRTEPAQVIRIDKDKGYIDLSKKLVTPNEAKACEAHFRQGNEVRSIVCHVAELCDIPAMDAMEMIAYPLYQREPGKHAWTWLYELNQTEDVERILGPLKLEKAISDCLMLTLKNAMRLKVLTLFAEVEITCFACDGVEAIRDVLILGRSYGEGSDPQIHLSVNIIGPPKYGIRARTDMKEEGIQRMKEAIEAMTAEIKKRGGQLKVVSPPQPHGDADEGKKGFDGEDDDDEDAD | soluble
MKIAIINMGNNVINFKTVPSSETIYLFKVISEMGLNVDIISLKNGVYTKSFDEVDVNDYDRLIVVNSSINFFGGKPNLAILSAQKFMAKYKSKIYYLFTDIRLPFSQSWPNVKNRPWAYLYTEEELLIKSPIKVISQGINLDIAKAAHKKVDNVIEFEYFPIEQYKIHMNDFQLSKPTKKTLDVIYGGSFRSGQRESKMVEFLFDTGLNIEFFGNAREKQFKNPKYPWTKAPVFTGKIPMNMVSEKNSQAIAALIIGDKNYNDNFITLRVWETMASDAVMLIDEEFDTKHRIINDARFYVNNRAELIDRVNELKHSDVLRKEMLSIQHDILNKTRAKKAEWQDAFKKAIDL | soluble
MGSDKIHHHHHHMRTLKELERELQPRQHLWYFEYYTGNNVGLFMKMNRVIYSGQSDIQRIDIFENPDLGVVFALDGITMTTEKDEFMYHEMLAHVPMFLHPNPKKVLIIGGGDGGTLREVLKHDSVEKAILCEVDGLVIEAARKYLKQTSCGFDDPRAEIVIANGAEYVRKFKNEFDVIIIDSTDPTAGQGGHLFTEEFYQACYDALKEDGVFSAETEDPFYDIGWFKLAYRRISKVFPITRVYLGFMTTYPSGMWSYTFASKGIDPIKDFDPEKVRKFNKELKYYNEEVHVASFALPNFVKKELGLM | not soluble
VKIELTVNGLKIQAQYQNEEIENVHKPLLHMLAALQTVNPQRRTVVFLCAPPGTGKSTLTTFWEYLAQQDPELPAIQTLPMDGFHHYNSWLDAHQLRPFKGAPETFDVAKLTENLRQVVEGDCTWPQYDRQKHDPVEDALHVTAPLVIVEGNWLLLDDEKWLELASFCDFSIFIHAPAQILRERLISRKIAGGLTRQVAEAFYARTDGPNVERVLMNSRQANLIVEMTEEGRYHFTS | soluble
AGPGAEEEQLDTAEIAFQVKEQLLKHNIGQRVFGHYVLGLSQGSVSEILARPKPWRKLTVKGKEPFIKMKQFLSDEQNVLALRTIQVR | soluble
MFQVPDSEGGRAGSRAMKPPGGESSNLFGSPEEATPSSRPNRMASNIFGPTEEPQNIPKRTNPPGGKGSGIFDESTPVQTRQHLNPPGGKTSDIFGSPVTATSRLAHPNKPKDHVFLCEGEEPKSDLK | not soluble
MRILSLILWIAAIVLPVHSASAAPVKMTIVLERQYLDGEMSEEKVTETVDSMTEIWKKYRGWQLVTLDDQTIVFRKTINDISPLLKTNGYFGITDDGTLSIFNGKPDRSSEIIQSFFQIDVQKLESRQQEKLKKGIRVLSKERYEQVIEMYRHFAVVQ | not soluble
